Experimental data published in paper PMC10665427, “The heat shock protein LarA activates the Lon protease in response to proteotoxic stress” (Nature Communications, 2023).
One block for each molecule: values may come before it.

Assays:
Lon-His (C. crescentus) [1] = molecular target: Lon-His (C. crescentus) (UniProt B8GX12)
[2] = molecular target: Lon^EQ (Lon E420Q, Walker-B mutant) (C. crescentus) (UniProt B8GX12); assay: native MS; purified proteins buffer exchanged into 200 mM ammonium acetate pH 8.0, mixed in equimolar ratios (LarA also in 3-fold excess); nano ESI, Waters Synapt G2, source temperature 30 °C
Lon-His (C. crescentus) [3] = molecular target: Lon-His (C. crescentus) (UniProt B8GX12); remark: listed apart in the source
[4] = molecular target: the molecule itself; assay: native MS; purified proteins buffer exchanged into 200 mM ammonium acetate pH 8.0, mixed in equimolar ratios (LarA also in 3-fold excess); nano ESI, Waters Synapt G2, source temperature 30 °C

rate of Lon-mediated His-SciP degradation against LarA concentration (0 to 15 µM), highest at 2 µM LarA, compared with reactions lacking LarA (Lon-His (C. crescentus) [1]): 5.5 fold | stoichiometry N (LarA molecules per Lon^EQ hexamer) [2]: 6
Molecule: LarA, purified (natural protein)

Km of Lon-mediated His-SciP degradation in vitro, in the presence of 2 µM LarA (0.05 µM Lon-His hexamer) (Lon-His (C. crescentus) [3]): 1.8 µM | Km of Lon-mediated His-SciP degradation in vitro, without LarA (0.05 µM Lon-His hexamer) (Lon-His (C. crescentus) [3]): 9.3 µM
Molecule: 6xHis-tagged SciP (natural protein)

B1: Lon^EQ (Lon E420Q, Walker-B mutant) (enzyme, C. crescentus, UniProt B8GX12 1-799, looked up)
chain: MSELRTLPVLPLRDIVVFPHMVVPLFVGRDKSVRALEEVMRGDKQILLVTQKNSADDDPAPGDIFEVGVLATVLQLLKLPDGTVKVLVEGKARAAVVSFTDQESYYEAQIGEVSEDDGAGPEAEALSRAVVEQFENYVKLNKKVPPEALASIPQIAEPGKLADSIAAHLSVKIGDKQNLLEIFDVVKRLEKVFALMEGEISVLQVEKKIRSRVKRQMEKTQREYYLNEQMKAIQRELGDPDDARDELIDLEKRIKKTKLSKEARTKAESELKKLRNMSPMSAESTVVRNYLDWLLSIPWGKAKTKKIDLVESEGILDADHYGLEKVKERILEYLAVQARTNSLKGPILCLVGPPGVGKTSLGKSIAKATGREFVRMSLGGVRDEAEIRGHRRTYIGSMPGKVVQSMKKAKTTNAFVLLDQIDKMGSDYRGDPASALLEVLDPSQNSTFGDHYLEVDYDLSQVMFVTTANSLNMPQPLLDRMEIIRIPGYTEDEKLEIAKRHILPKLAKDHGLKPAEFIVPDKAIRDLIRYYTREAGVRSLERELGALARKTVRDLAREKVASITIDDERLAKYAGVKKYRYGETDEVDQVGIVTGLAWTEFGGDILTIEAVKMPGKGRMQITGNLKDVMKESIAAANSYVRSRALQFGIKPPVFEKTDVHIHVPDGATPKDGPSAGIAMALAMVSVLTGIPIRKDIAMTGEITLRGRVTAIGGLKEKLLAALRSGVKTVLIPQENEKDLADVPQTVKDGLEIIPVSTVDEVLKHALTGPLTPVEWNEAEEPITTSAKKDDGDSDAMLTH
notes: predicted molecular weight of the hexamer 529,458 Da; Deficient in ATP hydrolysis; source: E. coli BL21-SI/pCodonPlus, purified (Talon, Ulp1 cleavage, anion exchange)
stoichiometry N [4]: 6
